Measured values as given in the supplement of paper PMC10126150.
± gives the standard deviation of the averaged measurements.

Test system: ATP
Experiment: switch fluorescence ratio, 500 uM ATP over buffer (Cy3 cluster intensity, sum of 5 cycles each) (fold (ratio)); higher = stronger signal-on switching upon ATP binding; sequences stand for … in TCGTCGGCAGCGTCAGATGTGTATAAGAGACAGTTTTTTTTTTTTTTTTTTTTTTTTT…TC
Settings: aptamer strand: ATP DNA aptamer (quencher-CACCTGGGGGAGTATTGCGGAGGAAGG + anchor), 100 nM annealed; ATP concentration: 500 uM
Summary of the method: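 Clusters carrying Cy3-labelled switching strands on a modified Illumina MiSeq flow-cell were annealed to 100 nM quencher-labelled ATP aptamer and imaged in selection buffer. They were imaged again after 15 min with 500 uM ATP at 22 °C, over five buffer/ATP cycles with NaOH stripping and re-annealing in between. For each cluster, the fluorescence ratio is the summed Cy3 intensity of the target cycles divided by that of the buffer cycles, averaged per switch-domain sequence. Clusters outside 100-1000 RFU were left out.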
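Also: ATP exposure 15 min at 22 °C before imaging.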

Point of comparison: GAGGTAGTCA, switch fluorescence ratio 1.0112 ± 0.00047. Against it:
- GAGATCGTCG — lower, 0.993 ± 0.01
- GAGATCTTGG — lower, 0.9824 ± 0.0045
- GAGATGAGCG — within error, 0.997 ± 0.035
- GAGATGCGAG — lower, 0.963 ± 0.021
- GAGATGTGCG — lower, 0.9319 ± 0.008
- GAGATTGGGT — lower, 1.001 ± 0.0077
- GAGATTTTTT — higher, 1.018 ± 0.0091
- GAGCAATTTT — higher, 2.31 ± 0.15
- GAGCACAGGT — higher, 2.33 ± 0.12
- GAGCACGTAT — within error, 1.03 ± 0.063
- GAGCCACCAC — higher, 1.051 ± 0.002
- GAGCCCTCGG — within error, 0.999 ± 0.023
- GAGCCGGGCC — within error, 0.99 ± 0.023
- GAGCGAGAAG — the same, 1.01 ± 0.028
- GAGCGATGTC — higher, 1.07 ± 0.035
- GAGCGCCCGT — the same, 1.01 ± 0.0017
- GAGCGCCGGG — the same, 1.01 ± 0.017
- GAGCGGGGGT — the same, 1.01 ± 0.013
- GAGCTAGGAG — within error, 1 ± 0.024
- GAGCTGGGGA — lower, 0.983 ± 0.012
- GAGCTTGCGA — within error, 1.03 ± 0.044
- GAGCTTTGAT — within error, 0.996 ± 0.024
- GAGCTTTGTT — lower, 0.984 ± 0.018
- GAGCTTTTGA — within error, 0.971 ± 0.04
- GAGGAAAGGC — within error, 0.999 ± 0.058
- GAGGAACGTG — lower, 0.967 ± 0.014
- GAGGAAGCGA — higher, 1.18 ± 0.059
- GAGGACTTAG — within error, 0.989 ± 0.022
- GAGGAGAAGA — within error, 1.02 ± 0.027
- GAGGAGAATT — lower, 0.983 ± 0.018
- GAGGAGACGT — higher, 1.03 ± 0.019
- GAGGAGCGGT — within error, 1 ± 0.017
- GAGGAGGCCA — lower, 0.9828 ± 0.0053
- GAGGAGGGGA — the same, 1.01 ± 0.018
- GAGGATGGGT — lower, 0.933 ± 0.024
- GAGGATTATT — lower, 0.9694 ± 0.0059
- GAGGATTGAC — within error, 1 ± 0.038
- GAGGCAAAG — within error, 2.87 ± 2.4
- GAGGCAAAGT — higher, 1.094 ± 0.0059
- GAGGCAAGGT — higher, 1.65 ± 0.092
- GAGGCACGG — higher, 1.0469 ± 0.00025
- GAGGCAGAGT — higher, 1.04 ± 0.023
- GAGGCATATA — higher, 1.9 ± 0.29
- GAGGCCGCTA — higher, 1.84 ± 0.043
- GAGGCGCATC — within error, 1 ± 0.026
- GAGGCGCTTA — lower, 0.961 ± 0.011
- GAGGCGGCTG — within error, 0.994 ± 0.038
- GAGGCGGGTG — the same, 1.01 ± 0.013
- GAGGCTGGTA — lower, 0.98 ± 0.028
- GAGGCTGTTT — the same, 1.01 ± 0.035
- GAGGGAATGG — within error, 1.07 ± 0.061
- GAGGGAATTA — within error, 1.06 ± 0.11
- GAGGGACTGG — within error, 0.988 ± 0.084
- GAGGGACTTG — lower, 0.98 ± 0.012
- GAGGGCACGC — within error, 0.968 ± 0.06
- GAGGGCCGCG — within error, 0.997 ± 0.051
- GAGGGCCGGG — within error, 0.995 ± 0.068
- GAGGGCGGCA — within error, 1.02 ± 0.036
- GAGGGCGTAA — higher, 1.06 ± 0.035
- GAGGGCTGAG — lower, 0.985 ± 0.02
- GAGGGGAAGT — lower, 0.9982 ± 0.004
- GAGGGGAGGT — lower, 0.974 ± 0.025
- GAGGGGATTG — within error, 0.986 ± 0.047
- GAGGGGCCTA — lower, 0.968 ± 0.021
- GAGGGGCGAT — within error, 0.998 ± 0.013
- GAGGGGGGAG — within error, 0.986 ± 0.027
- GAGGGGGTAG — within error, 0.997 ± 0.033
- GAGGGGGTCA — within error, 1.02 ± 0.029
- GAGGGGGTTT — lower, 0.99 ± 0.018
- GAGGGGTAAG — within error, 1 ± 0.015
- GAGGGGTACT — higher, 1.025 ± 0.0042
- GAGGGGTGTG — within error, 0.993 ± 0.029
- GAGGGGTTAG — lower, 0.978 ± 0.014
- GAGGGTAATC — within error, 1.004 ± 0.01
- GAGGGTAGAG — the same, 1.01 ± 0.042
- GAGGGTCCTA — lower, 0.9994 ± 0.0054
- GAGGGTGCAG — lower, 1.004 ± 0.0043
- GAGGGTGTAA — within error, 1.001 ± 0.01
- GAGGGTTTTG — lower, 0.9768 ± 0.0092
- GAGGTAAGGT — within error, 1 ± 0.015
- GAGGTAGGCC — higher, 1.048 ± 0.0066
- GAGGTATGTG — within error, 0.997 ± 0.023
- GAGGTATTTG — within error, 1.02 ± 0.037
- GAGGTCCAGC — higher, 1.14 ± 0.074
